According to publication PMC8885419, “Identification and mechanism of G protein-biased ligands for chemokine receptor CCR1” (Nature Chemical Biology, 2021):

T1: wild-type full-length human CCR1 fused with LgBiT at the C terminus (cryo-EM construct) (human, UniProt P32246 1-355)
T1 construct: chemokine receptor CCR1, human, wild type, full length; Expressed with a chemokine (CCL15 (26–92), CCL15 (27–92), or CCL3 (4–69) for the apo complex) fused to its N terminus by a GS linker with a TEV site; the linker was cut with TEV protease and 2*MBP removed with 3C protease; Also used here as the target of the functional rows on wild-type CCR1 in cells, whose construct for the G protein …
T1 sequence (looked up): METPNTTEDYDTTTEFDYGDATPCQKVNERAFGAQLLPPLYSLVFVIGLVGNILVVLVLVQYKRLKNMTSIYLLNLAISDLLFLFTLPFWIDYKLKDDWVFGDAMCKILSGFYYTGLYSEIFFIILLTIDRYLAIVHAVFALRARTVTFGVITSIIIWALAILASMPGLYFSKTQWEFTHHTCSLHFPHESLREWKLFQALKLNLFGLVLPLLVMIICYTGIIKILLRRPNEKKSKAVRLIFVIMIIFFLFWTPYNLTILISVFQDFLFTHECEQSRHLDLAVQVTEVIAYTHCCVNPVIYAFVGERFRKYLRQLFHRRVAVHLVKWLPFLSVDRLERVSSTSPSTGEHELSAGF


Key:
β-arrestin2 (βarr2) = experiment: β-arrestin2 recruitment dose-response (method not named for this panel; panel d of the same figure is NanoBiT); settings: agonist CCL15M (CCL15 27-92) at 1e-6 M (highest dose); parent: est. 100; read off a plot
[1] = biological target: T1, wild-type full-length human CCR1 fused …; experiment: cryo-EM structure; CCL15-bound CCR1–Gi complexes (CCL15^L, CCL15^M); chemokine expressed fused to CCR1 and cut with TEV; co-expressed with Gi in SF9; NanoBiT tethering of CCR1-LgBiT and Gβ1-SmBiT; scFv16 added; 20 mM HEPES pH 7.5, 100 mM NaCl, LMNG/CHS/GDN; settings: both partners purified

| Molecule | percent of parent (% wild-type/CCL15M max) (β-arrestin2 (βarr2)) | binding result [1] |
| --- | --- | --- |
| CCR1 (1–327 aa) with LgBiT at the C terminal (from UniProt P32246) T86A; W90A | 81 |  |
| CCR1 (1–327 aa) with LgBiT at the C terminal (from UniProt P32246) Y113F; Y255F | 85 |  |

More lines, now with the values ahead:

| percent of parent (% wild-type/CCL15M max) (β-arrestin2 (βarr2)) | binding result [1] | Molecule |
| --- | --- | --- |
|  | binds | CCL15 (27–92) (ligand, human, UniProt Q16663 48-113, looked up, chemokine CCL15, human, residues 27–92 of CCL15 (1–92); In the cryo-EM sample residues of the GS/TEV linker may remain at the C terminus; also called CCL15^M; medium form CCL15; source: SF9 insect cells, expressed fused to the N terminus of CCR1, cut with TEV protease, purified in the complex) HFAADCCTSYISQSIPCSLMKSYFETSSECSKPGVIFLTKKGRQVCAKPSGPGVQDCMKKLKPYSI |
|  | binds | CCL15 (26–92) (ligand, human, UniProt Q16663 47-113, looked up, chemokine CCL15, human, residues 26–92 of CCL15 (1–92), first residue F26; also called CCL15^L; long form CCL15; source: SF9 insect cells, expressed fused to the N terminus of CCR1, cut with TEV protease, purified in the complex) FHFAADCCTSYISQSIPCSLMKSYFETSSECSKPGVIFLTKKGRQVCAKPSGPGVQDCMKKLKPYSI |
